# Assay results reported in publication doi:10.1101/2025.07.28.667166.
# Assays:
# Test in all cases: NMR
# Cys34 = Cys34 (UniProt position 34, DWCGHCQAAQP); settings: 298 K; reduced (with DTT), 1 mM protein
# Cys31 = Cys31 (UniProt position 31, FGTDWCGHCQA); settings: 298 K; reduced (with DTT), 1 mM protein
# His33 = His33 (UniProt position 33, TDWCGHCQAAQ); settings: 298 K, 1 mM protein
substance,measurement,setting,value
"Patrx2 (atypical thioredoxin, PA2694) (Pseudomonas aeruginosa)",pKa,Cys34,greater than 11.0
same,pKa,Cys31,5.8
same,pKa,"His33; oxidised (C31-C34 disulfide, without DTT)",less than 5
same,pKa,His33; reduced (with DTT),6.3
